In patent US20190111114A1 (BRIGHAM AND WOMEN S HOSPITAL, published 2019):

Target: T1, BCL11A, endogenous, in mouse erythroid (MEL) cells (mouse, UniProt Q9QYE3 1-835, limits assumed)
T1 sequence (looked up): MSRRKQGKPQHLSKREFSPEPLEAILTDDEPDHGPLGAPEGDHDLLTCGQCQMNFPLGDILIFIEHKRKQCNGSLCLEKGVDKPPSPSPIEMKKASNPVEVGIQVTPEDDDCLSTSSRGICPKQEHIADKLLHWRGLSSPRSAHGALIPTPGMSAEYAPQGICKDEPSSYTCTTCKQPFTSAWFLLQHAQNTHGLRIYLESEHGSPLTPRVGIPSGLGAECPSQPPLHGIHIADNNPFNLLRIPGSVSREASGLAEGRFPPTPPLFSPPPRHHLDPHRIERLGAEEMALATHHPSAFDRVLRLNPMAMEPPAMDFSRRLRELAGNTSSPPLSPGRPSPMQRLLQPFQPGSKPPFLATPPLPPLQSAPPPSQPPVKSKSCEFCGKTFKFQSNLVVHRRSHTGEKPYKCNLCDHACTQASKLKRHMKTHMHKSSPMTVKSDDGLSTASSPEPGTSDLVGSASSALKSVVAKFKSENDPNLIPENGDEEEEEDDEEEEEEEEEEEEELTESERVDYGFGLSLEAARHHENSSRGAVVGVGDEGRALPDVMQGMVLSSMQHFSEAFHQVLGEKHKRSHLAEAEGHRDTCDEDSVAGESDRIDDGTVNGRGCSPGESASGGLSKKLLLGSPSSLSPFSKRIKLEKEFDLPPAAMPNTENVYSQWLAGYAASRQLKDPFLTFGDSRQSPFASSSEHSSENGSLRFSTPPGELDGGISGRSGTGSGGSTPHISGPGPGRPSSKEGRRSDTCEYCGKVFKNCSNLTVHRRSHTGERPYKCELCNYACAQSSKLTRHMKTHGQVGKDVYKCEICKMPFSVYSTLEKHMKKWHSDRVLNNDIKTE
Assay: immunoprecipitation of tagged mouse LRF from MEL cells, Western blot
Excerpt: FKPM values were obtained from RNA-Seq experiments. (B) Validation of Y2H results by IP. […] Protein samples from empty vector-transfected cells served as negative controls. (C) LRF/GATAD2B interaction was validated in mouse erythroleukemia (MEL) cells. Applicants generated a series of expression vectors encoding N- or C-terminally-tagged mouse LRF (mLRF) and performed IP in MEL cells. Applicants could pull-down NuRD components and endogenous LRF protein only when Applicants expressed the LRF tagged at the far C-terminus. Anti-HA antibody could pull down both endogenous and exogenous LRF plus NuRD components (far right lane), while antibody against Flag, which was placed 15 aa upstream of the HA tag, pulled down only exogenous LRF (2nd lane from the left). Although Applicants tested 5 different (2 original and 3 commercially-available) anti-LRF antibodies for IP in mouse cells, none could pull down endogenous mouse LRF protein. Native LRF in the large NuRD complex may be inaccessible to anti-LRF antibodies in mouse cells (a model shown on right). Applicants note that the BCL11A image is from a different membrane. (D) Knockout of LRF or BCL11A was confirmed by Western blot using anti-LRF or -BCL11A antibodies. GAPDH: loading control. (E) Relative copy number of indicated β-globin transcripts was determined by q-PCR, as described in FIG. 8C. […]

- binding result: no binding
B1: mouse LRF tagged at the far C-terminus with Flag and HA (pMX-mCherry-FHC-mLRF), expressed in MEL cells (other, UniProt O88939 1-569, looked up)
chain: MAGGVDGPIGIPFPDHSSDILSGLNEQRTQGLLCDVVILVEGREFPTHRSVLAACSQYFKKLFTSGAVVDQQNVYEIDFVSAEALTALMDFAYTATLTVSTANVGDILSAARLLEIPAVSHVCADLLERQILAADDVGDASQPDGAGPTDQRNLLRAKEYLEFFRSNPMNSLPPTAFPWSGFGAPDDDLDATKEAVAAAVAAVAAGDCNGLDFYGPGPPADRPPAGDGDEGDSTPGLWPERDEDAPPGGLFPPPTAPPATTQNGHYGRAGAGTGEEEAAALSEAAPEPGDSPGFLSGAAEGEDGDAADVDGLAASTLLQQMMSSVGRAGDSDEESRTDDKGVMDYYLKYFSGAHEGDVYPAWSQKGEKKIRAKAFQKCPICEKVIQGAGKLPRHIRTHTGEKPYECNICKVRFTRQDKLKVHMRKHTGEKPYLCQQCGAAFAHNYDLKNHMRVHTGLRPYQCDSCCKTFVRSDHLHRHLKKDGCNGVPSRRGRKPRVRGVPPDVPAGAGAPPGLPDAPRNGQEKHFKDEEEDEEEASPDGSGRLNVAGSGGDDGAGGPAVATAEGNFAT
notes: also called exogenous LRF; not shown: Flag and HA tags at the 3' end of the cDNA, Flag placed 15 aa upstream of the HA tag
